In IntAct's records for PubMed 31515488:

B1: Caspase-9 (Homo sapiens), P55211 (parent)
chain: MDEADRRLLRRCRLRLVEELQVDQLWDALLSRELFRPHMIEDIQRAGSGSRRDQARQLIIDLETRGSQALPLFISCLEDTGQDMLASFLRTNRQAAKLSKPTLENLTPVVLRPEIRKPEVLRPETPRPVDIGSGGFGDVGALESLRGNADLAYILSMEPCGHCLIINNVNFCRESGLRTRTGSNIDCEKLRRRFSSLHFMVEVKGDLTAKKMVLALLELAQQDHGALDCCVVVILSHGCQASHLQFPGAVYGTDGCPVSVEKIVNIFNGTSCPSLGGKPKLFFIQACGGEQKDHGFEVASTSPEDESPGSNPEPDATPFQEGLRTFDQLDAISSLPTPSDIFVSYSTFPGFVSWRDPKSGSWYVETLDDIFEQWAHSEDLQSLLLRVANAVSVKGIYKQMPGCFNFLRKKLFFKTS
B2: Zinc finger protein 655 (Homo sapiens), Q8N720 (parent)
chain: MEEIPAQEAAGSPRVQFQSLETQSECLSPEPQFVQDTDMEQGLTGDGETREENKLLIPKQKISEEVHSYKVRVGRLKHDITQVPETREVYKSEDRLERLQEILRKFLYLEREFRQITISKETFTSEKNNECHEPEKSFSLDSTIDADQRVLRIQNTDDNDKYDMSFNQNSASGKHEHLNLTEDFQSSECKESLMDLSHLNKWESIPNTEKSYKCDVCGKIFHQSSALTRHQRIHTREKPYKCKECEKSFSQSSSLSRHKRIHTREKPYKCEASDKSCEASDKSCSPSSGIIQHKKIHTRAKSYKCSSCERVFSRSVHLTQHQKIHKEMPCKCTVCGSDFCHTSYLLEHQRVHHEEKAYEYDEYGLAYIKQQGIHFREKPYTCSECGKDFRLNSHLIQHQRIHTGEKAHECNECGKAFSQTSCLIQHHKMHRKEKSYECNEYEGSFSHSSDLILQQEVLTRQKAFDCDVWEKNSSQRAHLVQHQSIHTKENS
B3: UV excision repair protein RAD23 homolog B (Homo sapiens), P54727 (parent)
chain: MQVTLKTLQQQTFKIDIDPEETVKALKEKIESEKGKDAFPVAGQKLIYAGKILNDDTALKEYKIDEKNFVVVMVTKPKAVSTPAPATTQQSAPASTTAVTSSTTTTVAQAPTPVPALAPTSTPASITPASATASSEPAPASAAKQEKPAEKPAETPVATSPTATDSTSGDSSRSNLFEDATSALVTGQSYENMVTEIMSMGYEREQVIAALRASFNNPDRAVEYLLMGIPGDRESQAVVDPPQAASTGAPQSSAVAAAAATTTATTTTTSSGGHPLEFLRNQPQFQQMRQIIQQNPSLLPALLQQIGRENPQLLQQISQHQEHFIQMLNEPVQEAGGQGGGGGGGSGGIAEAGSGHMNYIQVTPQEKEAIERLKALGFPEGLVIQAYFACEKNENLAANFLLQQNFDED
partner: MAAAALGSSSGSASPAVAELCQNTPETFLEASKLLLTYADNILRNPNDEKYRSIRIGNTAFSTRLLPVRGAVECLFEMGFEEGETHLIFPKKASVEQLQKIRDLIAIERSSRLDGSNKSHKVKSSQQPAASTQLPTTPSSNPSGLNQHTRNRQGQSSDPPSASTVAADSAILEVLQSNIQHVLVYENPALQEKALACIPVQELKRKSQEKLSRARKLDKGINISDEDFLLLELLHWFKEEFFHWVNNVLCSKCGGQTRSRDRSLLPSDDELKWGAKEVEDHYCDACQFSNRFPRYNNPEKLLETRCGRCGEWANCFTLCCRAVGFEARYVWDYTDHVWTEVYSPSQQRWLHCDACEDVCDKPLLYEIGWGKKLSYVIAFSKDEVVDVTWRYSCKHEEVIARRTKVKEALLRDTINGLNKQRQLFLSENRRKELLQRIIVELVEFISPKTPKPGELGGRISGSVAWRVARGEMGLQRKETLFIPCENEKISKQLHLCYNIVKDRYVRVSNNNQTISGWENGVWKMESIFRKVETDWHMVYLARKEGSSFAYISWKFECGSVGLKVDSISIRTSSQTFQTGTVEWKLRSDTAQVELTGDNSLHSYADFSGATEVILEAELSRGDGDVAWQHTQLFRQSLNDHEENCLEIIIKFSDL
B4: Caspase-2 (Homo sapiens), P42575 (parent)
chain: MAAPSAGSWSTFQHKELMAADRGRRILGVCGMHPHHQETLKKNRVVLAKQLLLSELLEHLLEKDIITLEMRELIQAKVGSFSQNVELLNLLPKRGPQAFDAFCEALRETKQGHLEDMLLTTLSGLQHVLPPLSCDYDLSLPFPVCESCPLYKKLRLSTDTVEHSLDNKDGPVCLQVKPCTPEFYQTHFQLAYRLQSRPRGLALVLSNVHFTGEKELEFRSGGDVDHSTLVTLFKLLGYDVHVLCDQTAQEMQEKLQNFAQLPAHRVTDSCIVALLSHGVEGAIYGVDGKLLQLQEVFQLFDNANCPSLQNKPKMFFIQACRGDETDRGVDQQDGKNHAGSPGCEESDAGKEKLPKMRLPTRSDMICGYACLKGTAAMRNTKRGSWYIEALAQVFSERACDMHVADMLVKVNALIKDREGYAPGTEFHRCKEMSEYCSTLCRHLYLFPGHPPT
B5: Cyclic AMP-responsive element-binding protein 3-like protein 1 (Homo sapiens), Q96BA8 (parent)
chain: MDAVLEPFPADRLFPGSSFLDLGDLNESDFLNNAHFPEHLDHFTENMEDFSNDLFSSFFDDPVLDEKSPLLDMELDSPTPGIQAEHSYSLSGDSAPQSPLVPIKMEDTTQDAEHGAWALGHKLCSIMVKQEQSPELPVDPLAAPSAMAAAAAMATTPLLGLSPLSRLPIPHQAPGEMTQLPVIKAEPLEVNQFLKVTPEDLVQMPPTPPSSHGSDSDGSQSPRSLPPSSPVRPMARSSTAISTSPLLTAPHKLQGTSGPLLLTEEEKRTLIAEGYPIPTKLPLTKAEEKALKRVRRKIKNKISAQESRRKKKEYVECLEKKVETFTSENNELWKKVETLENANRTLLQQLQKLQTLVTNKISRPYKMAATQTGTCLMVAALCFVLVLGSLVPCLPEFSSGSQTVKEDPLAADGVYTASQMPSRSLLFYDDGAGLWEDGRSTLLPMEPPDGWEINPGGPAEQRPRDHLQHDHLDSTHETTKYLSEAWPKDGGNGTSPDFSHSKEWFHDRDLGPNTTIKLS

Variants of: B1
Details: with birc2_human BIRC2, Q13490
birc2_human BIRC2, Q13490, sequence (Q13490 whole entry): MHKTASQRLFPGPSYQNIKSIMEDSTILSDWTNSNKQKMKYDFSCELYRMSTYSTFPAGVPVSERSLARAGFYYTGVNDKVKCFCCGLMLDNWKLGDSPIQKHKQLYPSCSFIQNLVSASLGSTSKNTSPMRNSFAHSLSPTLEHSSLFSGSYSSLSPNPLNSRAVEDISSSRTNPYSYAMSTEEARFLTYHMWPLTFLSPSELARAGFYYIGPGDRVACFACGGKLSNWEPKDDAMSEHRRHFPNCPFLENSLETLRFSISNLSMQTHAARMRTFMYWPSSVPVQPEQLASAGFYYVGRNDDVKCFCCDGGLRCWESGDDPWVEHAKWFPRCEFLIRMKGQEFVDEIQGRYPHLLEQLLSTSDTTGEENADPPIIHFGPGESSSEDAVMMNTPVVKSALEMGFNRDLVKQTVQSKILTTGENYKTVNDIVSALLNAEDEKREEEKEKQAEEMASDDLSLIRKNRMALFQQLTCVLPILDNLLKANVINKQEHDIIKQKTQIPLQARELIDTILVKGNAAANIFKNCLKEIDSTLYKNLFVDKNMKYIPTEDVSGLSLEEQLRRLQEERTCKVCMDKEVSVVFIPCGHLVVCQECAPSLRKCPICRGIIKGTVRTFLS

| effect of a mutation on the interaction | Variant |
| --- | --- |
| disrupting interaction strength | H237P |

Variants of: B2
Details: with rint1_human RINT1, Q6NUQ1
rint1_human RINT1, Q6NUQ1, sequence (Q6NUQ1 whole entry): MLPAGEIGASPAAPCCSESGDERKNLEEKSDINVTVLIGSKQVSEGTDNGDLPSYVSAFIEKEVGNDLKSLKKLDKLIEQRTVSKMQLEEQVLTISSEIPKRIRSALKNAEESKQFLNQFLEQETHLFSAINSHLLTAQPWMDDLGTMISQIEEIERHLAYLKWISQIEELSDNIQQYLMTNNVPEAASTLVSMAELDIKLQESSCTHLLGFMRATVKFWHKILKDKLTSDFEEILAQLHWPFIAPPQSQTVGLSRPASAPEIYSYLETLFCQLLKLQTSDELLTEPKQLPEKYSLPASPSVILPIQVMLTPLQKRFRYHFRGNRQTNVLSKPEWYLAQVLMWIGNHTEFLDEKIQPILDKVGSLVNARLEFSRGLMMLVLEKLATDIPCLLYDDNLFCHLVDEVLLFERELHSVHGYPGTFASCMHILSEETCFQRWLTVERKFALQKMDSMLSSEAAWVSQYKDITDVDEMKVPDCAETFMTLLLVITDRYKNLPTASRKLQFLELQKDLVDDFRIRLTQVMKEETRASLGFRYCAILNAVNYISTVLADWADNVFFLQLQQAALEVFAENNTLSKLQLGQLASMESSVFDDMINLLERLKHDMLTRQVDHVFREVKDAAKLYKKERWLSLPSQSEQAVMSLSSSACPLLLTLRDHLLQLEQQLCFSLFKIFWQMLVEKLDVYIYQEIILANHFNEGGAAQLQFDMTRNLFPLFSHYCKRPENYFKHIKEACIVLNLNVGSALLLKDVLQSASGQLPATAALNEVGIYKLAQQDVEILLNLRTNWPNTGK

| effect of a mutation on the interaction | Variant |
| --- | --- |
| with no effect | S192R |

Variants of: B2
Details: with int13_human INTS13, Q9NVM9
int13_human INTS13, Q9NVM9, sequence (Q9NVM9 whole entry): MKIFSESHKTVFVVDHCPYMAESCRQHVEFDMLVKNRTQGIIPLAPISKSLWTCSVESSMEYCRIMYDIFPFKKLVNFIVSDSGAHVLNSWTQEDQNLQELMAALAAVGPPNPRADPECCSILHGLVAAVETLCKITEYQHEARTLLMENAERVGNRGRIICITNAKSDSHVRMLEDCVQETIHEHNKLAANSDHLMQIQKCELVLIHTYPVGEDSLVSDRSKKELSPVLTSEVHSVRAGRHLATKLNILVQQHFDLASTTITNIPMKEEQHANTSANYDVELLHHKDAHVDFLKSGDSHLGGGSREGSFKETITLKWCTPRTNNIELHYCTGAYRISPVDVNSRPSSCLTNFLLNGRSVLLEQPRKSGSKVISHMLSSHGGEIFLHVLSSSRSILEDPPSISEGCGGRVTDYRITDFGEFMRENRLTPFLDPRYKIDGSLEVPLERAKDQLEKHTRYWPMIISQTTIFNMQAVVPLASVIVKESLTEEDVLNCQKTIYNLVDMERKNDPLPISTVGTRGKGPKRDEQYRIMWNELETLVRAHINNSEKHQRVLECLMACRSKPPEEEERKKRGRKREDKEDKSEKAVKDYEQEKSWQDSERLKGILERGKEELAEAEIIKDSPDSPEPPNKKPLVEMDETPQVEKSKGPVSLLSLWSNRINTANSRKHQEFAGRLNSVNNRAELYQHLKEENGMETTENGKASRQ

| effect of a mutation on the interaction | Variant |
| --- | --- |
| with no effect | C466G |

Variants of: B3
Details: with ngly1_human NGLY1, Q96IV0

| effect of a mutation on the interaction | Variant |
| --- | --- |
| with no effect | T269R |
| with no effect | P119H |

Variants of: B4
Details: with cradd_human CRADD

| effect of a mutation on the interaction | Variant |
| --- | --- |
| with no effect | V29E |
| with no effect | G349S |
| with no effect | R155H |
| with no effect | E388K |
| with no effect | R265G |

Variants of: B5
Details: with gpr25_human GPR25, O00155
gpr25_human GPR25, O00155, sequence (O00155 whole entry): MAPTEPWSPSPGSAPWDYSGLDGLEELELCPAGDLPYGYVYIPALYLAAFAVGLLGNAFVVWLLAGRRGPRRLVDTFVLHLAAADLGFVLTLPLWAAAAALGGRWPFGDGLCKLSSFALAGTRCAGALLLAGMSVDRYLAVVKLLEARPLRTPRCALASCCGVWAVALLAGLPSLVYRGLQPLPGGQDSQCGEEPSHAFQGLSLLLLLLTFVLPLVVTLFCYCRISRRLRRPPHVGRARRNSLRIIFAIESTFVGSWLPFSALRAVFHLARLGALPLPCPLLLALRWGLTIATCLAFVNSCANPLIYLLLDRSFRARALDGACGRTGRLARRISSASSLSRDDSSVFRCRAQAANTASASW

| effect of a mutation on the interaction | Variant |
| --- | --- |
| with no effect | A152T |

Variants of: B5
Details: with tm147_human TMEM147, Q9BVK8
tm147_human TMEM147, Q9BVK8, sequence (Q9BVK8 whole entry): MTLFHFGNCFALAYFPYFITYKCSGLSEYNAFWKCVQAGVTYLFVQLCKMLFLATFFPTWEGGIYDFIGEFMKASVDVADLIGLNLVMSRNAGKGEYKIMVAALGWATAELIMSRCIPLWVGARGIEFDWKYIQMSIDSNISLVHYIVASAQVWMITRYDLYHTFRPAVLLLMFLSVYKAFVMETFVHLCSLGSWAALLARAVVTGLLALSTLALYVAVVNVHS

| effect of a mutation on the interaction | Variant |
| --- | --- |
| with no effect | A152T |
